According to publication PMC12120766, “Paclitaxel/Luteolin Coloaded Dual‐Functional Liposomes for Esophageal Cancer Therapy”:

Key:
[1] = target: T1, CTNNA1 (catenin alpha 1) (UniProt P35221 2-906); assay: MST; MST: 50 nM labeled CTNNA1 in 10 mM PBS pH 7.4, EA2 0.00153-50 uM in 10 mM PBST (0.05% Tween-20) pH 7.4; temperature not stated; details: tags: RED-NHS dye label; predicted mFold secondary structure
[2] = target: T1, CTNNA1 (catenin alpha 1); assay: MST; no antibody (control of the antibody competition); MST: 50 nM labeled CTNNA1 in 10 mM PBS pH 7.4, EA2 0.00153-50 uM in 10 mM PBST (0.05% Tween-20) pH 7.4; temperature not stated; details: tags: RED-NHS dye label; predicted mFold secondary structure

T1 sequence (P35221 2-906): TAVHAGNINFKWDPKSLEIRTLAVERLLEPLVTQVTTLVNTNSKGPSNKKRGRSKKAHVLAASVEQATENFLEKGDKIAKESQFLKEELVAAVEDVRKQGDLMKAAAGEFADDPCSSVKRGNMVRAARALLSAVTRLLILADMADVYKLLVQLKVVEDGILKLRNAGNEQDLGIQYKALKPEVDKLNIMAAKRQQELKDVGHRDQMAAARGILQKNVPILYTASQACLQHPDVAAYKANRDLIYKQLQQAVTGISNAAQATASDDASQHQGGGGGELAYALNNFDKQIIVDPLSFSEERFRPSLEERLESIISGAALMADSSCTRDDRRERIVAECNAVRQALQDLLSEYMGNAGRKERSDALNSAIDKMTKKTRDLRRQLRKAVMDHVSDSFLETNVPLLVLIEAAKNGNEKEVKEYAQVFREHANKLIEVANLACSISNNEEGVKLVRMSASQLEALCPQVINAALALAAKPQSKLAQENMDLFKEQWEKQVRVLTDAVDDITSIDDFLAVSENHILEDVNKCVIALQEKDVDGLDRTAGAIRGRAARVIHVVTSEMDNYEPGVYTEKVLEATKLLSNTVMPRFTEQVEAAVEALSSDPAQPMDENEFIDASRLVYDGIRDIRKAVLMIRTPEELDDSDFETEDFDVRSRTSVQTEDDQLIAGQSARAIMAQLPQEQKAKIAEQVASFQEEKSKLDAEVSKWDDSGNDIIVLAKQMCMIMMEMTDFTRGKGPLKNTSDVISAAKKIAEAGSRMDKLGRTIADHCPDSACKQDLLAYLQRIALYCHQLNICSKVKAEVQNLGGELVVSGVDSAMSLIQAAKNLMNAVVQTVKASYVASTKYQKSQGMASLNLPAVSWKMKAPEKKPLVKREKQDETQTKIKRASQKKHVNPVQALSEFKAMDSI

B1: EA2 (ssDNA)
DNA: AGCCTAAGCCTGTCCAGGAATCGTGCAGCCATAGCCTAAGCCTGTCCAGGAATCGATGGCTTAGTGGCACGATTAGGTC
- Kd [1]: 2070 ± 600 nM
- Kd [2]: 2300 ± 600 nM
